Assays:
[1] = target: fluorescently labeled K48-Ub4 (S20C on the most distal Ub, Alexa Fluor 488) (UniProt P0CG48); assay: fluorescence polarisation
full-length (FL) UBQLN2 = full-length (FL) UBQLN2 (UniProt Q9UHD9); assay: NMR titration

Kd [1] [nM] | Kd (full-length (FL) UBQLN2) [nM] | Substance
2700 | – | UBQLN2 450-624 (from UniProt Q9UHD9 450-624) (domain or fragment)
– | 3000 | ubiquitin (Ub) (from UniProt P0CG48 1-76) (natural protein; other documents disagree on this pair)
